B1: Polo like kinase 2 (PLK2) (protein)
chain: MELLRTITYQPAASTKMCEQALGKGCGADSKKKRPPQPPEESQPPQSQAQVPPAAPHHHHHHSHSGPEISRIIVDPTTGKRYCRGKVLGKGGFAKCYEMTDLTNNKVYAAKIIPHSRVAKPHQREKIDKEIELHRILHHKHVVQFYHYFEDKENIYILLEYCSRRSMAHILKARKVLTEPEVRYYLRQIVSGLKYLHEQEILHRDLKLGNFFINEAMELKVGDFGLAARLEPLEHRRRTICGTPNYLSPEVLNKQGHGCESDIWALGCVMYTMLLGRPPFETTNLKETYRCIREARYTMPSSLLAPAKHLIASMLSKNPEDRPSLDDIIRHDFFLQGFTPDRLSSSCCHTVPDFHLSSPAKNFFKKAAAALFGGKKDKARYIDTHNRVSKEDEDIYKLRHDLKKTSITQQPSKHRTDEELQPPTTTVARSGTPAVENKQQIGDAIRMIVRGTLGSCSSSSECLEDSTMGSVADTVARVLRGCLENMPEADCIPKEQLSTSFQWVTKWVDYSNKYGFGYQLSDHTVGVLFNNGAHMSLLPDKKTVHYYAELGQCSVFPATDAPEQFISQVTVLKYFSHYMEENLMDGGDLPSVTDIRRPRLYLLQWLKSDKALMMLFNDGTFQVNFYHDHTKIIICSQNEEYLLTYINEDRISTTFRLTTLLMSGCSSELKNRMEYALNMLLQRCN
B2: IKBKB (protein)
chain: MSWSPSLTTQTCGAWEMKERLGTGGFGNVIRWHNQETGEQIAIKQCRQELSPRNRERWCLEIQIMRRLTHPNVVAARDVPEGMQNLAPNDLPLLAMEYCQGGDLRKYLNQFENCCGLREGAILTLLSDIASALRYLHENRIIHRDLKPENIVLQQGEQRLIHKIIDLGYAKELDQGSLCTSFVGTLQYLAPELLEQQKYTVTVDYWSFGTLAFECITGFRPFLPNWQPVQWHSKVRQKSEVDIVVSEDLNGTVKFSSSLPYPNNLNSVLAERLEKWLQLMLMWHPRQRGTDPTYGPNGCFKALDDILNLKLVHILNMVTGTIHTYPVTEDESLQSLKARIQQDTGIPEEDQELLQEAGLALIPDKPATQCISDGKLNEGHTLDMDLVFLFDNSKITYETQISPRPQPESVSCILQEPKRNLAFFQLRKVWGQVWHSIQTLKEDCNRLQQGQRAAMMNLLRNNSCLSKMKNSMASMSQQLKAKLDFFKTSIQIDLEKYSEQTEFGITSDKLLLAWREMEQAVELCGRENEVKLLVERMMALQTDIVDLQRSPMGRKQGGTLDDLEEQARELYRRLREKPRDQRTEGDSQEMVRLLLQAIQSFEKKVRVIYTQLSKTVVCKQKALELLPKVEEVVSLMNEDEKTVVRLQEKRQKELWNLLKIACSKVRGPVSGSPDSMNASRLSQPGQLMSQPSTASNSLPEPAKKSEELVAEAHNLCTLLENAIQDTVREQDQSFTALDWSWLQTEEEEHSCLEQAS

Tests used:
[1] = target: recombinant wild-type human alpha-synuclein
[2] = target: alpha synuclein familial mutant A53T
[3] = target: alpha synuclein familial mutant A30P
[4] = target: alpha synuclein familial mutant E46K

Chain of beta synuclein, Q16143 (Q16143 whole entry): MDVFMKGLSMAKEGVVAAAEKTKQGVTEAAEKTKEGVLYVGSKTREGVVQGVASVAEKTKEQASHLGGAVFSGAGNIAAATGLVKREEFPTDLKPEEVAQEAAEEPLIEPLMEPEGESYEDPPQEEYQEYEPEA

| Protein | Fold Change in Percent Synuclein Phosphorylation, HEK-293 overexpression [1] | PLK2 activity in vitro, autoradiography [1] | Proportion of total synuclein that is phoshorylated at ser-129, HEK-293 overexpression, ELISA [1] | S129 phosphorylation, immunoblot (11A5), kinase:AS 1:200 molar [1] | S129 phosphorylation, immunoblot (11A5), rank of signal [1] | extent of S129 phosphorylation by mass spectrometry after co-expression in bacteria [1] | in vitro biochemical assay, phosphorylation of synuclein [1] | in vitro kinase reaction, phosphorylation of alpha-synuclein at serine 129 [1] | phospho ser-129 level in vitro, normalised for molarity [1] | PLK2 activity in vitro, autoradiography [2] | PLK2 activity in vitro, autoradiography [3] | PLK2 activity in vitro, autoradiography (beta synuclein, Q16143) | PLK2 activity in vitro, autoradiography [4] | in vitro kinase reaction, phosphorylation of alpha-synuclein [1] |
| --- | --- | --- | --- | --- | --- | --- | --- | --- | --- | --- | --- | --- | --- | --- |
| B1 | 21.2 fold | PLK2 was found to be more active against wild-type alpha synuclein than beta synuclein | 42.3% | Prominent signals came from GRK6, CKI, CKII and PLK2 | CKI>GRK6>PLK2>GRK4>GRK5>GRK2 | more than 95% phosphorylated | PLK2 and PLK3 having extremely robust phosphorylation of synuclein | capable of phosphorylating alpha-synuclein specifically at serine 129 and did not phosphorylate serine 87 in vitro | roughly equivalent levels of phospho ser-129 between CKI, GRK6 and PLK2 | the mutant alpha-synucleins were phosphorylated more at a given concentration (especially at lower concentrations) than WT | the mutant alpha-synucleins were phosphorylated more at a given concentration (especially at lower concentrations) than WT | minimally against beta synuclein | the mutant alpha-synucleins were phosphorylated more at a given concentration (especially at lower concentrations) than WT |  |
| B2 |  |  |  |  |  |  |  |  |  |  |  |  |  | shown to be incapable of directly phosphorylating alpha-synuclein |

Reference: patent US20080300206
